The record followed here is US20260242735A1 (UNIVERSIT T BASEL, published 2026).

Common to all, as to assay: flow cytometry on HEK293-T, alanine scan
In general terms: A flow cytometer gives signals particle by particle.

The target of assay [1] is human CD33 P150A (human, UniProt P20138 18-364).
In assay [2] the target is human CD33 S135A (human, UniProt P20138 18-364).
The target of assay [3] is human CD33 L134A (human, UniProt P20138 18-364).
Assay [4] has as its target human CD33 S102A (human, UniProt P20138 18-364).
For assay [5], the target named is human CD33 R122A (human, UniProt P20138 18-364).
human CD33 R122A, sequence (P20138 18-364 R122A limits assumed): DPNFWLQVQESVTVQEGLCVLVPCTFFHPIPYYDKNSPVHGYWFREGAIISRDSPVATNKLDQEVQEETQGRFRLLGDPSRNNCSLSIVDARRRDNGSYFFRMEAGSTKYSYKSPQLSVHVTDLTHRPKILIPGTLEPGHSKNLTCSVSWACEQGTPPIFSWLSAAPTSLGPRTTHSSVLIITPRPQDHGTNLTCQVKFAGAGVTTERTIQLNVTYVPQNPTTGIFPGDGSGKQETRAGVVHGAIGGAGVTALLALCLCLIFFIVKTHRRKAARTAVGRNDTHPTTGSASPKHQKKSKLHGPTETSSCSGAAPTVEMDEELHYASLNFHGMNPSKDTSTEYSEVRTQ
The target of assay [6] is human CD33 K159A (human, UniProt P20138 18-364).
human CD33 K159A, sequence (P20138 18-364 K159A limits assumed): as the sequence (P20138 18-364 R122A limits assumed) above, with A105R, K142A counted along it
Assay [7] deals with human CD33 N99A (human, UniProt P20138 18-364).
human CD33 N99A, sequence (P20138 18-364 N99A limits assumed): as the sequence (P20138 18-364 R122A limits assumed) above, with N82A, A105R counted along it
Assay [8] has as its target human CD33 W167A (human, UniProt P20138 18-364).
Assay [9] deals with human CD33 D107A (human, UniProt P20138 18-364).
human CD33 D107A, sequence (P20138 18-364 D107A limits assumed): as the sequence (P20138 18-364 R122A limits assumed) above, with D90A, A105R counted along it
The target in assay [10] is human CD33 L141A (human, UniProt P20138 18-364).
human CD33 L141A, sequence (P20138 18-364 L141A limits assumed): as the sequence (P20138 18-364 R122A limits assumed) above, with A105R, L124A counted along it
Assay [11] deals with human CD33 T162A (human, UniProt P20138 18-364).
human CD33 T162A, sequence (P20138 18-364 T162A limits assumed): as the sequence (P20138 18-364 R122A limits assumed) above, with A105R, T145A counted along it
Assay [12] has as its target human CD33 G151A (human, UniProt P20138 18-364).
The target in assay [13] is human CD33 E154A (human, UniProt P20138 18-364).
human CD33 E154A, sequence (P20138 18-364 E154A limits assumed): as the sequence (P20138 18-364 R122A limits assumed) above, with A105R, E137A counted along it
The target of assay [14] is human CD33 C101A (human, UniProt P20138 18-364).
human CD33 C101A, sequence (P20138 18-364 C101A limits assumed): as the sequence (P20138 18-364 R122A limits assumed) above, with C84A, A105R counted along it
Assay [15] concerns the target human CD33 N160A (human, UniProt P20138 18-364).
Assay [16] deals with human CD33 G156A (human, UniProt P20138 18-364).
human CD33 G156A, sequence (P20138 18-364 G156A limits assumed): as the sequence (P20138 18-364 R122A limits assumed) above, with A105R, G139A counted along it
For assay [17], the target named is human CD33 P145A (human, UniProt P20138 18-364).
human CD33 P145A, sequence (P20138 18-364 P145A limits assumed): as the sequence (P20138 18-364 R122A limits assumed) above, with A105R, P128A counted along it
The target in assay [18] is human CD33 R109A (human, UniProt P20138 18-364).
human CD33 R109A, sequence (P20138 18-364 R109A limits assumed): as the sequence (P20138 18-364 R122A limits assumed) above, with R92A, A105R counted along it
The target in assay [19] is human CD33 S97A (human, UniProt P20138 18-364).
human CD33 S97A, sequence (P20138 18-364 S97A limits assumed): as the sequence (P20138 18-364 R122A limits assumed) above, with S80A, A105R counted along it
The target in assay [20] is human CD33 N100A (human, UniProt P20138 18-364).
human CD33 N100A, sequence (P20138 18-364 N100A limits assumed): as the sequence (P20138 18-364 R122A limits assumed) above, with N83A, A105R counted along it

human CD33 P150A, sequence (P20138 18-364 P150A limits assumed): as the sequence (P20138 18-364 R122A limits assumed) above, with A105R, P133A counted along it
human CD33 G151A, sequence (P20138 18-364 G151A limits assumed): as the sequence (P20138 18-364 R122A limits assumed) above, with A105R, G134A counted along it
human CD33 L134A, sequence (P20138 18-364 L134A limits assumed): as the sequence (P20138 18-364 R122A limits assumed) above, with A105R, L117A counted along it
human CD33 S102A, sequence (P20138 18-364 S102A limits assumed): as the sequence (P20138 18-364 R122A limits assumed) above, with S85A, A105R counted along it
human CD33 W167A, sequence (P20138 18-364 W167A limits assumed): as the sequence (P20138 18-364 R122A limits assumed) above, with A105R, W150A counted along it
human CD33 S135A, sequence (P20138 18-364 S135A limits assumed): as the sequence (P20138 18-364 R122A limits assumed) above, with A105R, S118A counted along it
human CD33 N160A, sequence (P20138 18-364 N160A limits assumed): as the sequence (P20138 18-364 R122A limits assumed) above, with A105R, N143A counted along it

B1: Refmab #4 (antibody, V domains shown)
VH: QVQLVQSGAEVKKPGESVKVSCKASGYTFTNYGMNWVKQAPGQGLEWMGWINTYTGEPTYADKFQGRVTMTTDTSTSTAYMEIRNLGGDDTAVYYCARWSWSDGYYVYFDYWGQGTSVTVSS
VL: DIVMTQSPDSLTVSLGERTTINCKSSQSVLDSSTNKNSLAWYQQKPGQPPKLLLSWASTRESGIPDRFSGSGSGTDFTLTIDSPQPEDSATYYCQQSAHFPITFGQGTRLEIK
notes: The alanine scan used IgG or Fab
Turning to B1, the “Mean % WT Binding” value stood at 103 % WT binding in assay [1]; 109 % WT binding in assay [2]; 82.2 % WT binding in [3]; 73.6 % WT binding in assay [4]; 23 % WT binding in assay [5]; 118 % WT binding in [6]. The “Mean % WT Binding” value in assay [7] is 43.5 % WT binding; in assay [8] it was 112 % WT binding; in assay [9] it was 93 % WT binding; in assay [10], 93.7 % WT binding; in assay [11], 79.9 % WT binding; in assay [12], 101 % WT binding. The “Mean % WT Binding” value in [13] is 84.4 % WT binding; in [14], 1.5 % WT binding; in assay [15], 102 % WT binding; in [16], 67.2 % WT binding; in assay [17], 78.8 % WT binding; in assay [18] it was 99.5 % WT binding. The “Mean % WT Binding” value worked out at 121 % WT binding in assay [19] and 123 % WT binding in [20].
